Test system: HEK293FT cells transfected with TF library
Test: Screening of TF condensates based on fluorescent puncta
Type: cell-based
Conditions: Figure 1B numerical data; TF library screen, one value per transcriptional factor
Summary of the method: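 Condensate formation is scored as Alexa 488-labelled puncta after Flag- or GAL4-tag immunostaining of fixed HEK293FT cells expressing individual TFs, with a 12 h glucose-free or glucose-containing culture preceding fixation.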

Row | Molecule | Z score of condensed fraction
1 | ZBTB26 (protein, UniProt Q9HCK0 1-441, looked up) Zinc finger and BTB …: MSERSDLLHFKFENYGDSMLQKMNKLREENKFCDVTVLIDDIEVQGHKIVFAAGSPFLRDQFLLNDSREVKISILQSSEVGRQLLLSCYSGVLEFPEMELVNYLTAASFLQMSHIVERCTQALWKFIKPKQPMDSKEGCEPQSASPQSKEQQGDARGSPKQDSPCIHPSEDSMDMEDSDIQIVKVESIGDVSEVRSKKDQNQFISSEPTALHSSEPQHSLINSTVENRVSEIEQNHLHNYALSYTGSDNIIMASKDVFGPNIRGVDKGLQWHHQCPKCTRVFRHLENYANHLKMHKLFMCLLCGKTFTQKGNLHRHMRVHAGIKPFQCKICGKTFSQKCSLQDHLNLHSGDKPHKCNYCDMVFAHKPVLRKHLKQLHGKNSFDNANERNVQDLTVDFDSFACTTVTDSKGCQPQPDATQVLDAGKLAQAVLNLRNDSTCVN | 0.2152
2 | ZBTB21 (protein, UniProt Q9ULJ3 1-1066, looked up) Zinc finger and BTB …: MEGLLHYINPAHAISLLSALNEERLKGQLCDVLLIVGDQKFRAHKNVLAASSEYFQSLFTNKENESQTVFQLDFCEPDAFDNVLNYIYSSSLFVEKSSLAAVQELGYSLGISFLTNIVSKTPQAPFPTCPNRKKVFVEDDENSSQKRSVIVCQSRNEAQGKTVSQNQPDVSHTSRPSPSIAVKANTNKPHVPKPIEPLHNLSLTEKSWPKDSSVVYAKSLEHSGSLDDPNRISLVKRNAVLPSKPLQDREAMDDKPGVSGQLPKGKALELALKRPRPPVLSVCSSSETPYLLKETNKGNGQGEDRNLLYYSKLGLVIPSSGSGSGNQSIDRSGPLVKSLLRRSLSMDSQVPVYSPSIDLKSSQGSSSVSSDAPGNVLCALSQKSSLKDCSEKTALDDRPQVLQPHRLRSFSASQSTDREGASPVTEVRIKTEPSSPLSDPSDIIRVTVGDAATTAAASSSSVTRDLSLKTEDDQKDMSRLPAKRRFQADRRLPFKKLKVNEHGSPVSEDNFEEGSSPTLLDADFPDSDLNKDEFGELEGTRPNKKFKCKHCLKIFRSTAGLHRHVNMYHNPEKPYACDICHKRFHTNFKVWTHCQTQHGIVKNPSPASSSHAVLDEKFQRKLIDIVREREIKKALIIKLRRGKPGFQGQSSSQAQQVIKRNLRSRAKGAYICTYCGKAYRFLSQFKQHIKMHPGEKPLGVNKVAKPKEHAPLASPVENKEVYQCRLCNAKLSSLLEQGSHERLCRNAAVCPYCSLRFFSPELKQEHESKCEYKKLTCLECMRTFKSSFSIWRHQVEVHNQNNMAPTENFSLPVLDHNGDVTGSSRPQSQPEPNKVNHIVTTKDDNVFSDSSEQVNFDSEDSSCLPEDLSLSKQLKIQVKEEPVEEAEEEAPEASTAPKEAGPSKEASLWPCEKCGKMFTVHKQLERHQELLCSVKPFICHVCNKAFRTNFRLWSHFQSHMSQASEESAHKESEVCPVPTNSPSPPPLPPPPPLPKIQPLEPDSPTGLSENPTPATEKLFVPQESDTLFYHAPPLSAITFKRQFMCKLCHRTFKTAFSLWSHEQTHN | -0.7871
3 | ZBTB4 (protein, UniProt Q9P1Z0 1-1013, looked up) Zinc finger and BTB …: MPPPAEVTDPSHAPAVLRQLNEQRLRGLFCDVTLIAGDTKFPAHRSVLAASSPFFREALLTSAPLPLPPATGGAAPNPATTTAASSSSSSSSSSSSSSSSASSSSSSSSSSPPPASPPASSPPRVLELPGVPAAAFSDVLNFIYSARLALPGGGGDGAAVAEIGALGRRLGISRLQGLGEGGDAWVPPTPAPMATSQPEEDSFGPGPRPAGEWEGDRAEAQAPDLQCSLPRRPLPCPQCGKSFIHPKRLQTHEAQCRRGASTRGSTGLGAGGAGPGGPAGVDASALPPPVGFRGGPEHVVKVVGGHVLYVCAACERSYVTLSSLKRHSNVHSWRRKYPCRYCEKVFALAEYRTKHEVWHTGERRYQCIFCWETFVTYYNLKTHQRAFHGISPGLLASEKTPNGGYKPKLNTLKLYRLLPMRAAKRPYKTYSQGAPEAPLSPTLNTPAPVAMPASPPPGPPPAPEPGPPPSVITFAHPAPSVIVHGGSSSGGGGSGTASTGGSQAASVITYTAPPRPPKKREYPPPPPEPAATPTSPATAVSPATAAGPAMATTTEEAKGRNPRAGRTLTYTAKPVGGIGGGGGPPTGAGRGPSQLQAPPPLCQITVRIGEEAIVKRRISETDLRPGELSGEEMEESEEDEEEEDEEEEEEDEEESKAGGEDQLWRPYYSYKPKRKAGAAGGASVGGSGLPRGRRPPRWRQKLERRSWEETPAAESPAGRARTERRHRCGDCAQTFTTLRKLRKHQEAHGGGSHSSRAGRRPSTRFTCPHCAKVCKTAAALSRHGQRHAAERPGGTPTPVIAYSKGSAGTRPGDVKEEAPQEMQVSSSSGEAGGGSTAAEEASETASLQDPIISGGEEPPVVASGGSYVYPPVQEFPLALIGGGREPGGGRGKSGSEGPVGAGEGDRMEGIGAAKVTFYPEPYPLVYGPQLLAAYPYNFSNLAALPVALNMVLPDEKGAGALPFLPGVFGYAVNPQAAPPAPPTPPPPTLPPPIPPKGEGERAGVERTQKGDVG | 1.258
4 | ZBTB37 (protein, UniProt Q5TC79 1-503, looked up) Zinc finger and BTB …: MEKGGNIQLEIPDFSNSVLSHLNQLRMQGRLCDIVVNVQGQAFRAHKVVLAASSPYFRDHMSLNEMSTVSISVIKNPTVFEQLLSFCYTGRICLQLADIISYLTAASFLQMQHIIDKCTQILEGIHFKINVAEVEAELSQTRTKHQERPPESHRVTPNLNRSLSPRHNTPKGNRRGQVSAVLDIRELSPPEESTSPQIIEPSSDVESREPILRINRAGQWYVETGVADRGGRSDDEVRVLGAVHIKTENLEEWLGPENQPSGEDGSSAEEVTAMVIDTTGHGSVGQENYTLGSSGAKVARPTSSEVDRFSPSGSVVPLTERHRARSESPGRMDEPKQPSSQVEESAMMGVSGYVEYLREQEVSERWFRYNPRLTCIYCAKSFNQKGSLDRHMRLHMGITPFVCRMCGKKYTRKDQLEYHIRKHTGNKPFHCHVCGKSFPFQAILNQHFRKNHPGCIPLEGPHSISPETTVTSRGQAEEESPSQEETVAPGEAVQGSVSTTGPD | 0.3942
5 | ZBTB38 (protein, UniProt Q8NAP3 1-1195, looked up) Zinc finger and BTB …: MTVMSLSRDLKDDFHSDTVLSILNEQRIRGILCDVTIIVEDTKFKAHSNVLAASSLYFKNIFWSHTICISSHVLELDDLKAEVFTEILNYIYSSTVVVKRQETVTDLAAAGKKLGISFLEDLTDRNFSNSPGPYVFCITEKGVVKEEKNEKRHEEPAITNGPRITNAFSIIETENSNNMFSPLDLRASFKKVSDSMRTASLCLERTDVCHEAEPVRTLAEHSYAVSSVAEAYRSQPVREHDGSSPGNTGKENCEALAAKPKTCRKPKTFSIPQDSDSATENIPPPPVSNLEVNQERSPQPAAVLTRSKSPNNEGDVHFSREDENQSSDVPGPPAAEVPPLVYNCSCCSKAFDSSTLLSAHMQLHKPTQEPLVCKYCNKQFTTLNRLDRHEQICMRSSHMPIPGGNQRFLENYPTIGQNGGSFTGPEPLLSENRIGEFSSTGSTLPDTDHMVKFVNGQMLYSCVVCKRSYVTLSSLRRHANVHSWRRTYPCHYCNKVFALAEYRTRHEIWHTGERRYQCIFCLETFMTYYILKNHQKSFHAIDHRLSISKKTANGGLKPSVYPYKLYRLLPMKCKRAPYKSYRNSSYENARENSQMNESAPGTYVVQNPHSSELPTLNFQDTVNTLTNSPAIPLETSACQDIPTSANVQNAEGTKWGEEALKMDLDNNFYSTEVSVSSTENAVSSDLRAGDVPVLSLSNSSENAASVISYSGSAPSVIVHSSQFSSVIMHSNAIAAMTSSNHRAFSDPAVSQSLKDDSKPEPDKVGRFASRPKSIKEKKKTTSHTRGEIPEESNYVADPGGSLSKTTNIAEETSKIETYIAKPALPGTSTNSNVAPLCQITVKIGNEAIVKRHILGSKLFYKRGRRPKYQMQEEPLPQGNDPEPSGDSPLGLCQSECMEMSEVFDDASDQDSTDKPWRPYYNYKPKKKSRQLKKMRKVNWRKEHGNRSPSHKCKYPAELDCAVGKAPQDKPFEEEETKEMPKLQCELCDGDKAVGAGNQGRPHRHLTSRPYACELCAKQFQSPSTLKMHMRCHTGEKPYQCKTCGRCFSVQGNLQKHERIHLGLKEFVCQYCNKAFTLNETLKIHERIHTGEKRYHCQFCFQRFLYLSTKRNHEQRHIREHNGKGYACFQCPKICKTAAALGMHQKKHLFKSPSQQEKIGDVCHENSNPLENQHFIGSEDNDQKDNIQTGVENVVL | -1.284

From publication PMC11574045, “A cofactor-induced repressive type of transcription factor condensation can be induced by synthetic peptides to suppress tumorigenesis” (The EMBO Journal, 2024)
